Results from IntAct's records for PubMed 19556969.

B1: Regulator of nonsense transcripts 2 (Homo sapiens), Q9HAU5 (parent)
chain: MPAERKKPASMEEKDSLPNNKEKDCSERRTVSSKERPKDDIKLTAKKEVSKAPEDKKKRLEDDKRKKEDKERKKKDEEKVKAEEESKKKEEEEKKKHQEEERKKQEEQAKRQQEEEAAAQMKEKEESIQLHQEAWERHHLRKELRSKNQNAPDSRPEENFFSRLDSSLKKNTAFVKKLKTITEQQRDSLSHDFNGLNLSKYIAEAVASIVEAKLKISDVNCAVHLCSLFHQRYADFAPSLLQVWKKHFEARKEEKTPNITKLRTDLRFIAELTIVGIFTDKEGLSLIYEQLKNIINADRESHTHVSVVISFCRHCGDDIAGLVPRKVKSAAEKFNLSFPPSEIISPEKQQPFQNLLKEYFTSLTKHLKRDHRELQNTERQNRRILHSKGELSEDRHKQYEEFAMSYQKLLANSQSLADLLDENMPDLPQDKPTPEEHGPGIDIFTPGKPGEYDLEGGIWEDEDARNFYENLIDLKAFVPAILFKDNEKSCQNKESNKDDTKEAKESKENKEVSSPDDLELELENLEINDDTLELEGGDEAEDLTKKLLDEQEQEDEEASTGSHLKLIVDAFLQQLPNCVNRDLIDKAAMDFCMNMNTKANRKKLVRALFIVPRQRLDLLPFYARLVATLHPCMSDVAEDLCSMLRGDFRFHVRKKDQINIETKNKTVRFIGELTKFKMFTKNDTLHCLKMLLSDFSHHHIEMACTLLETCGRFLFRSPESHLRTSVLLEQMMRKKQAMHLDARYVTMVENAYYYCNPPPAEKTVKKKRPPLQEYVRKLLYKDLSKVTTEKVLRQMRKLPWQDQEVKDYVICCMINIWNVKYNSIHCVANLLAGLVLYQEDVGIHVVDGVLEDIRLGMEVNQPKFNQRRISSAKFLGELYNYRMVESAVIFRTLYSFTSFGVNPDGSPSSLDPPEHLFRIRLVCTILDTCGQYFDRGSSKRKLDCFLVYFQRYVWWKKSLEVWTKDHPFPIDIDYMISDTLELLRPKIKLCNSLEESIRQVQDLEREFLIKLGLVNDKDSKDSMTEGENLEEDEEEEEGGAETEEQSGNESEVNEPEEEEGSDNDDDEGEEEEEENTDYLTDSNKENETDEENTEVMIKGGGLKHVPCVEDEDFIQALDKMMLENLQQRSGESVKVHQLDVAIPLHLKSQLRKGPPLGGGEGEAESADTMPFVMLTRKGNKQQFKILNVPMSSQLAANHWNQQQAEQEERMRMKKLTLDINERQEQEDYQEMLQSLAQRPAPANTNRERRPRYQHPKGAPNADLIFKTGGRRR
partner: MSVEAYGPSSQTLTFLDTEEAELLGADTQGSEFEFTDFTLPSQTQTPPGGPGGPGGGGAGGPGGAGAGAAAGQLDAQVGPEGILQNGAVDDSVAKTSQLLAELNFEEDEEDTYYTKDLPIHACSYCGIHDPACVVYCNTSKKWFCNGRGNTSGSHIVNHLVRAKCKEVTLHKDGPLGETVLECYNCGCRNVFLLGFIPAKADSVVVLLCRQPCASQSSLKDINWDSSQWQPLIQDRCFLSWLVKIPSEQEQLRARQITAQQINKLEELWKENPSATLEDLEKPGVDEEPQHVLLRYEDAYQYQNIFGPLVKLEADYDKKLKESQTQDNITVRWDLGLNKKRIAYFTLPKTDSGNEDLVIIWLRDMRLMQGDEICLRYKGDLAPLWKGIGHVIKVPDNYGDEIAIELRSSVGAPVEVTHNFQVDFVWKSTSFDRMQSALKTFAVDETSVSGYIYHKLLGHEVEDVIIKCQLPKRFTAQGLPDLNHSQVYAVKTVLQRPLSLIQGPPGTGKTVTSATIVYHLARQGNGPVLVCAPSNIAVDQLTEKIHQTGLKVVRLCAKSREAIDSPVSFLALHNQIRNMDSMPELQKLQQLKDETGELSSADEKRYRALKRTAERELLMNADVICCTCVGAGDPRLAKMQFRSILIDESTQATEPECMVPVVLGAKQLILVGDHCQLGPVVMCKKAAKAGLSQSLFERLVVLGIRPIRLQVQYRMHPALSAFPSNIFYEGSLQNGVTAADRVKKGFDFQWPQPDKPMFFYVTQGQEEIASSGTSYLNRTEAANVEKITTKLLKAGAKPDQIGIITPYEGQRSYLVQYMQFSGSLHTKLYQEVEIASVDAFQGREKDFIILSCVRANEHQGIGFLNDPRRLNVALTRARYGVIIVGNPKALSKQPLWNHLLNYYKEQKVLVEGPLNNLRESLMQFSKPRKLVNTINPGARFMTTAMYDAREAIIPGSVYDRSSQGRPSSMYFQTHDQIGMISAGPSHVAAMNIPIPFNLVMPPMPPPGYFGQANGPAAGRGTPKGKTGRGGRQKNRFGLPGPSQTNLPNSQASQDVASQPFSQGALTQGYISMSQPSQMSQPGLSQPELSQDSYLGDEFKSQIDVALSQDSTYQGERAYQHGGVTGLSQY

Variants of: B1
Conditions: with rent1_human UPF1, Q92900

How did the “effect of a mutation on the interaction” value turn out when R1176E was run?
Its value is “decreasing interaction”.

Variants of: B1
Conditions: with rent1_human UPF1, Q92900
Remark: another data set of the same source

M1169E was tested. Which “effect of a mutation on the interaction” value did it give?
Its value is “decreasing interaction”.

Variants of: B1
Conditions: with rent1_human UPF1, Q92900
Remark: another data set of the same source

For M1120E, which “effect of a mutation on the interaction” value is on record?
The value was “decreasing interaction”.

Variants of: B1
Conditions: with rent1_human UPF1, Q92900
Remark: another data set of the same source

F1113E was tested. Which “effect of a mutation on the interaction” value did it give?
Its value is “disrupting interaction”.

Variants of: B1
Conditions: with rent1_human UPF1, Q92900
Remark: another data set of the same source

Which “effect of a mutation on the interaction” value does the source give for M1121E here?
Its value is “decreasing interaction”.

Variants of: B1
Conditions: with rent1_human UPF1, Q92900
Remark: another data set of the same source

Which “effect of a mutation on the interaction” value does the source give for M1173E here?
Its value is “disrupting interaction”.

Variants of: B1
Conditions: with rent1_human UPF1, Q92900
Remark: another data set of the same source

Which “effect of a mutation on the interaction” value does the source give for E1123R here?
Its value is “decreasing interaction”.

Variants of: B1
Conditions: with rent1_human UPF1, Q92900
Remark: another data set of the same source

With F1171E as the variant, how does the “effect of a mutation on the interaction” value read?
The value was “disrupting interaction”.

Variants of: B1
Conditions: with rent1_human UPF1, Q92900
Remark: another data set of the same source

With L1174E as the variant, how does the “effect of a mutation on the interaction” value read?
Its value is “disrupting interaction”.
